Test results as given in IntAct's records for PubMed 31515488.

B1: Zinc finger protein 473 (Homo sapiens), Q8WTR7 (parent)
chain: MAEEFVTLKDVGMDFTLGDWEQLGLEQGDTFWDTALDNCQDLFLLDPPRPNLTSHPDGSEDLEPLAGGSPEATSPDVTETKNSPLMEDFFEEGFSQEIIEMLSKDGFWNSNFGEACIEDTWLDSLLGDPESLLRSDIATNGESPTECKSHELKRGLSPVSTVSTGEDSMVHNVSEKTLTPAKSKEYRGEFFSYSDHSQQDSVQEGEKPYQCSECGKSFSGSYRLTQHWITHTREKPTVHQECEQGFDRNASLSVYPKTHTGYKFYVCNEYGTTFSQSTYLWHQKTHTGEKPCKSQDSDHPPSHDTQPGEHQKTHTDSKSYNCNECGKAFTRIFHLTRHQKIHTRKRYECSKCQATFNLRKHLIQHQKTHAAKTTSECQECGKIFRHSSLLIEHQALHAGEEPYKCNERGKSFRHNSTLKIHQRVHSGEKPYKCSECGKAFHRHTHLNEHRRIHTGYRPHKCQECVRSFSRPSHLMRHQAIHTAEKPYSCAECKETFSDNNRLVQHQKMHTVKTPYECQECGERFICGSTLKCHESVHAREKQGFFVSGKILDQNPEQKEKCFKCNKCEKTFSCSKYLTQHERIHTRGVKPFECDQCGKAFGQSTRLIHHQRIHSRVRLYKWGEQGKAISSASLIKLQSFHTKEHPFKCNECGKTFSHSAHLSKHQLIHAGENPFKCSKCDRVFTQRNYLVQHERTHARKKPLVCNECGKTFRQSSCLSKHQRIHSGEKPYVCDYCGKAFGLSAELVRHQRIHTGEKPYVCQECGKAFTQSSCLSIHRRVHTGEKPYRCGECGKAFAQKANLTQHQRIHTGEKPYSCNVCGKAFVLSAHLNQHLRVHTQETLYQCQRCQKAFRCHSSLSRHQRVHNKQQYCL
partner: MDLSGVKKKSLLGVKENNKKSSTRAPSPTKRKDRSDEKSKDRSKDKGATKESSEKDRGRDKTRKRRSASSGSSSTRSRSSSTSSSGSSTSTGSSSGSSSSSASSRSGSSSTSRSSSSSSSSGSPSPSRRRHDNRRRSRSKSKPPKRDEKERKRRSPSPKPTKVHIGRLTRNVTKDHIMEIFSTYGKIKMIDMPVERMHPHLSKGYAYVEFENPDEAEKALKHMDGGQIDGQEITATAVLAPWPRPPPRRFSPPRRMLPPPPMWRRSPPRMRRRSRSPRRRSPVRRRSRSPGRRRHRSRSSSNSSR
B2: Protein FAM9B (Homo sapiens), Q8IZU0 (parent)
chain: MAAWGKKHAGKDPVRDECEERNRFTETREEDVTDEHGEREPFAETDEHTGANTKKPEDTAEDLTAKRKRMKMDKTCSKTKNKSKHALRKKQLKRQKRDYIHSLKLLNVLEEYITDEQKEEEEEEGEEEELIRIFQEQQKKWQQYRSVRRERLKEMKLLRDQFVKALEDFEDLCDRVFSDEDSELDN
partner: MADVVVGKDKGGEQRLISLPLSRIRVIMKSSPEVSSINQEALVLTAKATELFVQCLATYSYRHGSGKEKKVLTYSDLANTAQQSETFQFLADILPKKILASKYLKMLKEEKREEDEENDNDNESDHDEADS
B3: Nuclear protein AMMECR1 (Homo sapiens), Q9Y4X0 (parent)
chain: MAAGCCGVKKQKLSSSPPSGSGGGGGASSSSHCSGESQCRAGELGLGGAGTRLNGLGGLTGGGSGSGCTLSPPQGCGGGGGGIALSPPPSCGVGTLLSTPAAATSSSPSSSSAASSSSPGSRKMVVSAEMCCFCFDVLYCHLYGYQQPRTPRFTNEPYPLFVTWKIGRDKRLRGCIGTFSAMNLHSGLREYTLTSALKDSRFPPMTRDELPRLFCSVSLLTNFEDVCDYLDWEVGVHGIRIEFINEKGSKRTATYLPEVAKEQGWDHIQTIDSLLRKGGYKAPITNEFRKTIKLTRYRSEKMTLSYAEYLAHRQHHHFQNGIGHPLPPYNHYS
partner: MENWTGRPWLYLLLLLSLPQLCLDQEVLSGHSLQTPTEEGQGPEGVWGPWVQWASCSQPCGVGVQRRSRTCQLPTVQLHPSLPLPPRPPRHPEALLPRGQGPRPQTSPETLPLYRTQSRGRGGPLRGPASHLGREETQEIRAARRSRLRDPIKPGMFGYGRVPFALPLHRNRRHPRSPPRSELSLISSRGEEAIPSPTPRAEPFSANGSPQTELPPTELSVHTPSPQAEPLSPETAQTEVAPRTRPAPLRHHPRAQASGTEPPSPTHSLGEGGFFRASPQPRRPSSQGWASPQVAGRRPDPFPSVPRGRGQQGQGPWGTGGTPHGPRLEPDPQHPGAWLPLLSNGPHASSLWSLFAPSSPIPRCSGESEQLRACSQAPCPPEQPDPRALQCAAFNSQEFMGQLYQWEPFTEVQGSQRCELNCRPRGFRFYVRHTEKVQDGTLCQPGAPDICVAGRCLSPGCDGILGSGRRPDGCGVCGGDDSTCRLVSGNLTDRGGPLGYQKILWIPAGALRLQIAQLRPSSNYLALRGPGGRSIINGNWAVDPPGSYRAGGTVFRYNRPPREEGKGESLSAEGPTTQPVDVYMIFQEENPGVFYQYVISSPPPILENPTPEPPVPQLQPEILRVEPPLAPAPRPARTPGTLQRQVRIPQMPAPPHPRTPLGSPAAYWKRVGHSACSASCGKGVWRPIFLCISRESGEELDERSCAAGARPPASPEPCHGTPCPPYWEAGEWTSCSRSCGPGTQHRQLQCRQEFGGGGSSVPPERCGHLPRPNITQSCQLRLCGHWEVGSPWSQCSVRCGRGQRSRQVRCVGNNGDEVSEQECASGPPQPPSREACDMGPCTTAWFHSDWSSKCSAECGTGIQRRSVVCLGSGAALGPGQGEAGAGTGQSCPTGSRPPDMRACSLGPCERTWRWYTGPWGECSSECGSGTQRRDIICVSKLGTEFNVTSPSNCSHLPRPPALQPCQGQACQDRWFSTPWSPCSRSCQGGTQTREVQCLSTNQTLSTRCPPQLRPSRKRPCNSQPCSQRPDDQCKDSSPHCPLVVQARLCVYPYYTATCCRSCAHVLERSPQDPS
B4: KH domain-containing, RNA-binding, signal transduction-associated protein 2 (Homo sapiens), Q5VWX1 (parent)
chain: MEEEKYLPELMAEKDSLDPSFVHASRLLAEEIEKFQGSDGKKEDEEKKYLDVISNKNIKLSERVLIPVKQYPKFNFVGKLLGPRGNSLKRLQEETGAKMSILGKGSMRDKAKEEELRKSGEAKYAHLSDELHVLIEVFAPPGEAYSRMSHALEEIKKFLVPDYNDEIRQEQLRELSYLNGSEDSGRGRGIRGRGIRIAPTAPSRGRGGAIPPPPPPGRGVLTPRGSTVTRGALPVPPVARGVPTPRARGAPTVPGYRAPPPPAHEAYEEYGYDDGYGGEYDDQTYETYDNSYATQTQSVPEYYDYGHGVSEDAYDSYAPEEWATTRSSLKAPPQRSARGGYREHPYGRY
partner: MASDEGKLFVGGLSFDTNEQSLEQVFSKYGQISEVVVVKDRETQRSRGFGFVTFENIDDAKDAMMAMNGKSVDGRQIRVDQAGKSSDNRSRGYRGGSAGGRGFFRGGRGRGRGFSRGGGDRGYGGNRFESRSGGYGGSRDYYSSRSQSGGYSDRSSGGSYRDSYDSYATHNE
B5: Protein unc-45 homolog A (Homo sapiens), Q9H3U1 (parent)
chain: MTVSGPGTPEPRPATPGASSVEQLRKEGNELFKCGDYGGALAAYTQALGLDATPQDQAVLHRNRAACHLKLEDYDKAETEASKAIEKDGGDVKALYRRSQALEKLGRLDQAVLDLQRCVSLEPKNKVFQEALRNIGGQIQEKVRYMSSTDAKVEQMFQILLDPEEKGTEKKQKASQNLVVLAREDAGAEKIFRSNGVQLLQRLLDMGETDLMLAALRTLVGICSEHQSRTVATLSILGTRRVVSILGVESQAVSLAACHLLQVMFDALKEGVKKGFRGKEGAIIVDPARELKVLISNLLDLLTEVGVSGQGRDNALTLLIKAVPRKSLKDPNNSLTLWVIDQGLKKILEVGGSLQDPPGELAVTANSRMSASILLSKLFDDLKCDAERENFHRLCENYIKSWFEGQGLAGKLRAIQTVSCLLQGPCDAGNRALELSGVMESVIALCASEQEEEQLVAVEALIHAAGKAKRASFITANGVSLLKDLYKCSEKDSIRIRALVGLCKLGSAGGTDFSMKQFAEGSTLKLAKQCRKWLCNDQIDAGTRRWAVEGLAYLTFDADVKEEFVEDAAALKALFQLSRLEERSVLFAVASALVNCTNSYDYEEPDPKMVELAKYAKQHVPEQHPKDKPSFVRARVKKLLAAGVVSAMVCMVKTESPVLTSSCRELLSRVFLALVEEVEDRGTVVAQGGGRALIPLALEGTDVGQTKAAQALAKLTITSNPEMTFPGERIYEVVRPLVSLLHLNCSGLQNFEALMALTNLAGISERLRQKILKEKAVPMIEGYMFEEHEMIRRAATECMCNLAMSKEVQDLFEAQGNDRLKLLVLYSGEDDELLQRAAAGGLAMLTSMRPTLCSRIPQVTTHWLEILQALLLSSNQELQHRGAVVVLNMVEASREIASTLMESEMMEILSVLAKGDHSPVTRAAAACLDKAVEYGLIQPNQDGE
partner: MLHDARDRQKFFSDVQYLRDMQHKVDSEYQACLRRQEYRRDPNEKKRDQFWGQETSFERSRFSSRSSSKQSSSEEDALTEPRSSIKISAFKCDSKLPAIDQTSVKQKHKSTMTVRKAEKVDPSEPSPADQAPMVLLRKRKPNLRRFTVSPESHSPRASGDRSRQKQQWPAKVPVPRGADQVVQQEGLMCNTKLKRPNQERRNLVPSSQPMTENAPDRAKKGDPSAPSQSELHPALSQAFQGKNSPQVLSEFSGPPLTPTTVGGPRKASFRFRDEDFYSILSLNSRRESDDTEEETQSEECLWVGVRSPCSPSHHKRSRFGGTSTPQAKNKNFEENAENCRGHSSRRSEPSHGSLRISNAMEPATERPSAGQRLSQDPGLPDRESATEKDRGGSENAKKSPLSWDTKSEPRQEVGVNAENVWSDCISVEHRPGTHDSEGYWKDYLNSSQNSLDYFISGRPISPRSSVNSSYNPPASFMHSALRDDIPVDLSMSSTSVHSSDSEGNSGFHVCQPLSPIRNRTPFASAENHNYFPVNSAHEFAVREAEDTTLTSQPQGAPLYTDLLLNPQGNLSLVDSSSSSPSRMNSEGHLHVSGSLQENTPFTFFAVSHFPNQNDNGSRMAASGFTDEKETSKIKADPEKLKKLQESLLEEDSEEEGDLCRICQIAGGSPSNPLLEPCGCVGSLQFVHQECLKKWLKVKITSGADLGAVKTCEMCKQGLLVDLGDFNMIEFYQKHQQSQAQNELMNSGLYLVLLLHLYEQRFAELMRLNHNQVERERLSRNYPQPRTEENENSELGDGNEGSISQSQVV
B6: Retinoic acid receptor beta (Homo sapiens), P10826-2 (parent)
chain: MFDCMDVLSVSPGQILDFYTASPSSCMLQEKALKACFSGLTQTEWQHRHTAQSIETQSTSSEELVPSPPSPLPPPRVYKPCFVCQDKSSGYHYGVSACEGCKGFFRRSIQKNMIYTCHRDKNCVINKVTRNRCQYCRLQKCFEVGMSKESVRNDRNKKKKETSKQECTESYEMTAELDDLTEKIRKAHQETFPSLCQLGKYTTNSSADHRVRLDLGLWDKFSELATKCIIKIVEFAKRLPGFTGLTIADQITLLKAACLDILILRICTRYTPEQDTMTFSDGLTLNRTQMHNAGFGPLTDLVFTFANQLLPLEMDDTETGLLSAICLICGDRQDLEEPTKVDKLQEPLLEALKIYIRKRRPSKPHMFPKILMKITDLRSISAKGAERVITLKMEIPGSMPPLIQEMLENSEGHEPLTPSSSGNTAEHSPSISPSSVENSGVSQSPLVQ
partner: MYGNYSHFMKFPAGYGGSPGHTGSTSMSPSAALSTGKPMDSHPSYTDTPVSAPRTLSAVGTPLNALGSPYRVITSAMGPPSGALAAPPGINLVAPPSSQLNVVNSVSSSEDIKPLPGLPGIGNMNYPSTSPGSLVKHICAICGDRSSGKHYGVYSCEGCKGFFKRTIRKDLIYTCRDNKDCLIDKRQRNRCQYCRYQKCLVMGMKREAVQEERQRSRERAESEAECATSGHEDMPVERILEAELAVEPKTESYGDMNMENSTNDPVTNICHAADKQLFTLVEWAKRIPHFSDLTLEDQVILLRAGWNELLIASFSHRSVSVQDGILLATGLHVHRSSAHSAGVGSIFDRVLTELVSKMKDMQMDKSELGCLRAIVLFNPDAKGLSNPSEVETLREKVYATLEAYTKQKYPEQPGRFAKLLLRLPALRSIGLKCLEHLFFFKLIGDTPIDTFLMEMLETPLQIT

Variants of: B1
Settings: with rnps1_human RNPS1, Q15287
T164M was tested, and the “effect of a mutation on the interaction” value was “with no effect”. For T654I, the “effect of a mutation on the interaction” value was “with no effect”. For R223C, the “effect of a mutation on the interaction” value was “with no effect”. With Y456H the “effect of a mutation on the interaction” value was “with no effect”. For E309G, the “effect of a mutation on the interaction” value was “with no effect”. In the case of N82S, the “effect of a mutation on the interaction” value is reported as “with no effect”.

Variants of: B2
Settings: with chrc1_human CHRAC1, Q9NRG0
R23H was tested, and the “effect of a mutation on the interaction” value was “with no effect”.

Variants of: B3
Settings: with atl4_human ADAMTSL4, Q6UY14
For R207G, the “effect of a mutation on the interaction” value was “with no effect”.

Variants of: B4
Settings: with cirbp_human CIRBP
In the case of P333L, the “effect of a mutation on the interaction” value is reported as “with no effect”.

Variants of: B5
Settings: with marha_human MARCHF10, Q8NA82
For T796M, the “effect of a mutation on the interaction” value was “with no effect”.

Variants of: B6
Settings: with rxrg_human RXRG
V83I was tested, and the “effect of a mutation on the interaction” value was “with no effect”.
